± gives the uncertainty stated by the source.
Experiment: self-splicing fitness, log relative to wild type (ln ratio); higher = more splicing; Tetrahymena group I intron in knt gene, E. coli kanamycin selection, DiMSum; sequences stand for … in CUCUCU…GGAGGGAAAAGUUAUCAGGCAUGCACCUGGUAGCUAGUCUUUAAACCAAUAGAUUGCAUCGGUUUAAAAGGCAAGACCGUCAAAUUGCGGGAAAGGGGUCAACAGCCGUUCAGUACCAAGUCUCAGGGGAAACUUUGAGAUGGCCUUGCAAAGGGUAUGGUAAUAAGCUGACGGACAUGGUCCUAACCACGCAGCCAAGUCCUAAGUCAACAGAUCUUCUGUUGAUAUGGAUGCAGUUCACAGACUAAAUGUCGGUCGGGGAAGAUGUAUUCUUCUCAUAAGAUAUAGUCGGACCUCUCCUUAAUGGGAGCUAGCGGAUGAAGUGAUGCAACACUGGAGCCGCUGGGAACUAAUUUGUAUGCGAAAGUAUAUUGAUUAGUUUUGGAGUACUCGUGGUCG
How it was run: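 Pooled colonies went to amplicon sequencing on an Illumina HiSeq 2500 after six replicate transformations. The plates were LB agar with 100 μg/mL carbenicillin, 50 μM IPTG and 0.2% rhamnose, with or without 25 μg/mL kanamycin, incubated overnight at 37°C or 30°C. The E. coli BL21(DE3) library had all eight P1ex-region intron nucleotides randomised, the intron placed in the knt kanamycin-resistance gene on pET-22b(+). DiMSum fitness is the error-weighted combination of replicate fold changes, kanamycin against none, normalised to wild type.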

Sequence | self-splicing fitness (ln) (30 °C) | self-splicing fitness (ln) (37 °C)
UUUUAGCAAUAUUACGAUAG | -0.792 ± 0.26 | -0.639 ± 0.46
UUUUAGCAAUAUUACGAUCU | -0.719 ± 0.13 | -0.72 ± 0.15
UUUUAGCAAUAUUACGCACU | -0.447 ± 0.12 | -0.218 ± 0.15
UUUUAGCAAUAUUACGCCAG | -2.13 ± 0.47 | 
UUUUAGCAAUAUUACGCCCG | -0.629 ± 0.33 | 
UUUUAGCAAUAUUACGCCUA | -1 ± 0.2 | -0.553 ± 0.22
UUUUAGCAAUAUUACGCGUG | -0.683 ± 0.088 | -0.0858 ± 0.096
UUUUAGCAAUAUUACGCUUA | -1.1 ± 0.16 | -0.69 ± 0.15
UUUUAGCAAUAUUACGGCUG | -0.732 ± 0.48 | -0.495 ± 0.38
UUUUAGCAAUAUUACGGGGA | -1.56 ± 0.16 | -0.366 ± 0.14
UUUUAGCAAUAUUACGGUUU | -3.26 ± 0.47 | -0.0249 ± 0.25
UUUUAGCAAUAUUACGUAGU | -1.9 ± 0.37 | 
UUUUAGCAAUAUUACGUAUA | -2.59 ± 0.42 | 
UUUUAGCAAUAUUACGUGCG | -1.42 ± 0.17 | -0.84 ± 0.13
UUUUAGCAAUAUUACGUGCU | -2.43 ± 0.47 | -0.459 ± 0.22

From the supplement of paper PMC7877785
